This note sets out measurements from patent US20260365696A1, “INHIBITORS OF PTP1B / NCK1 INTERACTION AND METHODS OF MAKING AND USING SAME” (Radella Pharmaceuticals LLC, priority 2023, published 2026).

What all share (assay): ITC
For assay [1], the target named is T1, NCK1 SH3-2 domain (human).
T1 chain: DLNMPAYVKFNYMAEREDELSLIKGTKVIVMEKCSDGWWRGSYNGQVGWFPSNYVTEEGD

The target of assay [2] is T1, NCK1 SH3-2 domain.
Assay [3] concerns the target T1, NCK1 SH3-2 domain.
Assay [4] concerns the target T1, NCK1 SH3-2 domain.
Assay [5] deals with T1, NCK1 SH3-2 domain.

Where two headings read alike, the source gives them in different places.

Turning to Ac-PPRPPKRA-NH2 [MH138], in assay [1], the Kd is < 300 µM. Consider Ac-VPRPPKR-NH2 [MH123], for which, in assay [2], the equilibrium dissociation constant (Kd) is < 300 µM.

Take Ac-PPHPPKR-NH2 [MH057]: in assay [3], the Kd is < 300 µM. Regarding Ac-PPIPPKR-NH2 [MH096], the dissociation constant (Kd) in assay [3] is < 300 µM. On to Ac-PPRPPIR-NH2 [MH098], for which the dissociation constant Kd in assay [4] is < 300 µM. For the molecule Ac-PPAEHIPPPPRPPKR-NH2 [MSJ014], the Kd in assay [5] is < 300 µM.

Ac-PPPEHIPPPPRPAKR-NH2 [MH005]: the Kd in assay [5] was > 1000 µM. Turning to Ac-TPRPPKR-NH2 [MH113], in assay [2], the Kd is < 300 µM. Consider Ac-PPPEHAPPPPRPPKR-NH2 [MSJ017], for which the dissociation constant Kd in assay [5] was < 300 µM. Ac-PPCPPKR-NH2 [MH061]: the Kd in assay [3] is < 300 µM. Regarding Ac-PPGPPKR-NH2 [MH092], the dissociation constant (Kd) in assay [3] is > 600 µM. As to Ac-PPTPPKR-NH2 [MH114], the Kd in assay [3] is < 300 µM. With Ac-QPRPPKR-NH2 [MH086], the Kd in assay [2] is < 300 µM.

For the molecule Ac-PPRPPKRY-NH2 [MH155], the Kd in assay [1] is < 300 µM.

Ac-PPSPPKR-NH2 [MH059]: the Kd in assay [3] was < 300 µM. Turning to Ac-PPYPPKR-NH2 [MH120], in assay [3], the Kd was < 300 µM. Take Ac-PPLPPKR-NH2 [MH100]: the equilibrium dissociation constant (Kd) in assay [3] is < 300 µM. Regarding Ac-PPRPPMR-NH2 [MH112], in assay [4], the Kd was < 300 µM. For Ac-PPNPPKR-NH2 [MH060], the dissociation constant (Kd) in assay [3] is < 300 µM. Turning to Ac-PPRPPKRG-NH2 [MH145], the dissociation constant Kd in assay [1] is < 300 µM. On to Ac-PPRPPVR-NH2 [MH126], for which, in assay [4], the Kd is < 300 µM.

On to Ac-PPRPPDR-NH2 [MH085], for which the Kd in assay [4] was < 600 µM. As for Ac-PPRPPKRC-NH2 [MH142], the Kd in assay [1] was < 300 µM. For Ac-PPPEHIPPPPAPPKR-NH2 [MH003], in assay [5], the Kd was < 300 µM.

For Ac-PPRPPKRW-NH2 [MH154], the dissociation constant (Kd) in assay [1] is < 300 µM. On to Ac-PPWPPKR-NH2 [MH056], for which the equilibrium dissociation constant (Kd) in assay [3] is < 600 µM. As to Ac-PPRPPYR-NH2 [MH122], in assay [4], the Kd was < 300 µM. With Ac-PPFPPKR-NH2 [MH066], in assay [3], the Kd was < 300 µM.

Consider Ac-PPRPPRR-NH2 [MH048], for which the Kd in assay [4] is < 300 µM. Ac-PPRPPLR-NH2 [MH102]: the dissociation constant Kd in assay [4] was < 300 µM. For Ac-PPRPPQR-NH2 [MH088], the Kd in assay [4] is < 300 µM. As for Ac-PPRPPCR-NH2 [MH054], in assay [4], the Kd is < 300 µM. As to Ac-PAPEHIPPPPRPPKR-NH2 [MSJ013], the Kd in assay [5] was < 300 µM. In the case of Ac-PPRPPSR-NH2 [MH052], the Kd in assay [4] was < 300 µM. In the case of Ac-PPRPPPR-NH2 [MH107], the Kd in assay [4] is < 300 µM.

For Ac-PPKPPKR-NH2 [MH055], the dissociation constant (Kd) in assay [3] was < 300 µM. Turning to Ac-PPRPPKRM-NH2 [MH149], in assay [1], the Kd is < 300 µM.

As to Ac-PPRPPWR-NH2 [MH050], the dissociation constant Kd in assay [4] is < 300 µM.

For Ac-PPRPPKRK-NH2 [MH148], the dissociation constant Kd in assay [1] is < 300 µM. Consider Ac-MPRPPKR-NH2 [MH109], for which, in assay [2], the equilibrium dissociation constant (Kd) was < 300 µM. As to Ac-PPQPPKR-NH2 [MH087], in assay [3], the Kd is < 300 µM. Ac-PPRPPTR-NH2 [MH116]: in assay [4], the dissociation constant (Kd) was < 300 µM.

Take Ac-PPRPPFR-NH2 [MH105]: the Kd in assay [4] was < 600 µM. In the case of Ac-RPRPPKR-NH2 [MH068], in assay [2], the Kd is < 300 µM. As for Ac-PPRPPER-NH2 [MH051], the Kd in assay [4] was < 300 µM. As for Ac-PPPPPKR-NH2 [MH106], in assay [3], the Kd was < 300 µM. As to Ac-PPRPPKRH-NH2 [MH146], in assay [1], the Kd was < 300 µM. With Ac-PPRPPKRL-NH2 [MH147], the dissociation constant Kd in assay [1] was < 300 µM.

Turning to Ac-APPEHIPPPPRPPKR-NH2 [MSJ012], the dissociation constant Kd in assay [5] was < 300 µM. In the case of Ac-PPRPPKRF-NH2 [MH150], the dissociation constant Kd in assay [1] was < 300 µM.

Consider Ac-PPRPPKRP-NH2 [MH151], for which, in assay [1], the Kd was < 600 µM. In the case of Ac-PPDPPKR-NH2 [MH084], the Kd in assay [3] was < 300 µM.

Consider Ac-PPRPPKRR-NH2 [MH139], for which the dissociation constant Kd in assay [1] is < 300 µM. On the same count and under the same terms, the same measure for Ac-PPRPPKRD-NH2 [MH141]: < 300 µM. On the same count and under the same terms, the result for Ac-PPRPPKRN-NH2 [MH140] reads < 300 µM. As to Ac-EPRPPKR-NH2 [MH071], in assay [2], the Kd was < 300 µM. Regarding Ac-PPEPPKR-NH2 [MH058], in assay [3], the dissociation constant Kd was < 300 µM. Consider Ac-FPRPPKR-NH2 [MH073], for which, in assay [2], the equilibrium dissociation constant (Kd) is < 300 µM. Ac-PPRPPNR-NH2 [MH053]: the Kd in assay [4] is < 300 µM. As for Ac-PPRPPKRS-NH2 [MH152], the Kd in assay [1] is < 300 µM. For Ac-PPVPPKR-NH2 [MH124], the Kd in assay [3] is < 300 µM. As to Ac-PPRPPGR-NH2 [MH094], the dissociation constant Kd in assay [4] was > 600 µM. With Ac-PPMPPKR-NH2 [MH110], the Kd in assay [3] is < 300 µM. For the molecule Ac-PPRPPHR-NH2 [MH049], the Kd in assay [4] is < 300 µM. Turning to Ac-DPRPPKR-NH2 [MH083], the Kd in assay [2] is < 300 µM.

As a reminder, the Kd is a measure of binding affinity in units of concentration. Read a high Kd as lower affinity.
